One assay addresses T1, rat megalin (rat, UniProt P98158 26-4660).
T1 construct: megalin, rat, purified and immobilised on the SPR chip; probably the native receptor purified from rat kidney (surmised)
The experiment in a line: SPR; rat megalin or cubilin immobilised; human cysC flowed at 20-500 nM (7 concentrations); CaHBS: 10 mM HEPES, 150 mM NaCl, 1.5 mM CaCl2, 1 mM EGTA, pH 7.4; Biacore 3000; Langmuir 1:1 model, global fit. The following applies: both partners purified. Background: SPR reads the build-up and loss of mass on a sensor chip optically.

Another assay concerns the target T2, rat cubilin (rat, UniProt O70244 33-3623).
T2 construct: cubilin, rat, purified and immobilised on the SPR chip; probably the native receptor purified from rat kidney (surmised)
The assay is described as above. The following applies: both partners purified.

T2 sequence (O70244 33-3623): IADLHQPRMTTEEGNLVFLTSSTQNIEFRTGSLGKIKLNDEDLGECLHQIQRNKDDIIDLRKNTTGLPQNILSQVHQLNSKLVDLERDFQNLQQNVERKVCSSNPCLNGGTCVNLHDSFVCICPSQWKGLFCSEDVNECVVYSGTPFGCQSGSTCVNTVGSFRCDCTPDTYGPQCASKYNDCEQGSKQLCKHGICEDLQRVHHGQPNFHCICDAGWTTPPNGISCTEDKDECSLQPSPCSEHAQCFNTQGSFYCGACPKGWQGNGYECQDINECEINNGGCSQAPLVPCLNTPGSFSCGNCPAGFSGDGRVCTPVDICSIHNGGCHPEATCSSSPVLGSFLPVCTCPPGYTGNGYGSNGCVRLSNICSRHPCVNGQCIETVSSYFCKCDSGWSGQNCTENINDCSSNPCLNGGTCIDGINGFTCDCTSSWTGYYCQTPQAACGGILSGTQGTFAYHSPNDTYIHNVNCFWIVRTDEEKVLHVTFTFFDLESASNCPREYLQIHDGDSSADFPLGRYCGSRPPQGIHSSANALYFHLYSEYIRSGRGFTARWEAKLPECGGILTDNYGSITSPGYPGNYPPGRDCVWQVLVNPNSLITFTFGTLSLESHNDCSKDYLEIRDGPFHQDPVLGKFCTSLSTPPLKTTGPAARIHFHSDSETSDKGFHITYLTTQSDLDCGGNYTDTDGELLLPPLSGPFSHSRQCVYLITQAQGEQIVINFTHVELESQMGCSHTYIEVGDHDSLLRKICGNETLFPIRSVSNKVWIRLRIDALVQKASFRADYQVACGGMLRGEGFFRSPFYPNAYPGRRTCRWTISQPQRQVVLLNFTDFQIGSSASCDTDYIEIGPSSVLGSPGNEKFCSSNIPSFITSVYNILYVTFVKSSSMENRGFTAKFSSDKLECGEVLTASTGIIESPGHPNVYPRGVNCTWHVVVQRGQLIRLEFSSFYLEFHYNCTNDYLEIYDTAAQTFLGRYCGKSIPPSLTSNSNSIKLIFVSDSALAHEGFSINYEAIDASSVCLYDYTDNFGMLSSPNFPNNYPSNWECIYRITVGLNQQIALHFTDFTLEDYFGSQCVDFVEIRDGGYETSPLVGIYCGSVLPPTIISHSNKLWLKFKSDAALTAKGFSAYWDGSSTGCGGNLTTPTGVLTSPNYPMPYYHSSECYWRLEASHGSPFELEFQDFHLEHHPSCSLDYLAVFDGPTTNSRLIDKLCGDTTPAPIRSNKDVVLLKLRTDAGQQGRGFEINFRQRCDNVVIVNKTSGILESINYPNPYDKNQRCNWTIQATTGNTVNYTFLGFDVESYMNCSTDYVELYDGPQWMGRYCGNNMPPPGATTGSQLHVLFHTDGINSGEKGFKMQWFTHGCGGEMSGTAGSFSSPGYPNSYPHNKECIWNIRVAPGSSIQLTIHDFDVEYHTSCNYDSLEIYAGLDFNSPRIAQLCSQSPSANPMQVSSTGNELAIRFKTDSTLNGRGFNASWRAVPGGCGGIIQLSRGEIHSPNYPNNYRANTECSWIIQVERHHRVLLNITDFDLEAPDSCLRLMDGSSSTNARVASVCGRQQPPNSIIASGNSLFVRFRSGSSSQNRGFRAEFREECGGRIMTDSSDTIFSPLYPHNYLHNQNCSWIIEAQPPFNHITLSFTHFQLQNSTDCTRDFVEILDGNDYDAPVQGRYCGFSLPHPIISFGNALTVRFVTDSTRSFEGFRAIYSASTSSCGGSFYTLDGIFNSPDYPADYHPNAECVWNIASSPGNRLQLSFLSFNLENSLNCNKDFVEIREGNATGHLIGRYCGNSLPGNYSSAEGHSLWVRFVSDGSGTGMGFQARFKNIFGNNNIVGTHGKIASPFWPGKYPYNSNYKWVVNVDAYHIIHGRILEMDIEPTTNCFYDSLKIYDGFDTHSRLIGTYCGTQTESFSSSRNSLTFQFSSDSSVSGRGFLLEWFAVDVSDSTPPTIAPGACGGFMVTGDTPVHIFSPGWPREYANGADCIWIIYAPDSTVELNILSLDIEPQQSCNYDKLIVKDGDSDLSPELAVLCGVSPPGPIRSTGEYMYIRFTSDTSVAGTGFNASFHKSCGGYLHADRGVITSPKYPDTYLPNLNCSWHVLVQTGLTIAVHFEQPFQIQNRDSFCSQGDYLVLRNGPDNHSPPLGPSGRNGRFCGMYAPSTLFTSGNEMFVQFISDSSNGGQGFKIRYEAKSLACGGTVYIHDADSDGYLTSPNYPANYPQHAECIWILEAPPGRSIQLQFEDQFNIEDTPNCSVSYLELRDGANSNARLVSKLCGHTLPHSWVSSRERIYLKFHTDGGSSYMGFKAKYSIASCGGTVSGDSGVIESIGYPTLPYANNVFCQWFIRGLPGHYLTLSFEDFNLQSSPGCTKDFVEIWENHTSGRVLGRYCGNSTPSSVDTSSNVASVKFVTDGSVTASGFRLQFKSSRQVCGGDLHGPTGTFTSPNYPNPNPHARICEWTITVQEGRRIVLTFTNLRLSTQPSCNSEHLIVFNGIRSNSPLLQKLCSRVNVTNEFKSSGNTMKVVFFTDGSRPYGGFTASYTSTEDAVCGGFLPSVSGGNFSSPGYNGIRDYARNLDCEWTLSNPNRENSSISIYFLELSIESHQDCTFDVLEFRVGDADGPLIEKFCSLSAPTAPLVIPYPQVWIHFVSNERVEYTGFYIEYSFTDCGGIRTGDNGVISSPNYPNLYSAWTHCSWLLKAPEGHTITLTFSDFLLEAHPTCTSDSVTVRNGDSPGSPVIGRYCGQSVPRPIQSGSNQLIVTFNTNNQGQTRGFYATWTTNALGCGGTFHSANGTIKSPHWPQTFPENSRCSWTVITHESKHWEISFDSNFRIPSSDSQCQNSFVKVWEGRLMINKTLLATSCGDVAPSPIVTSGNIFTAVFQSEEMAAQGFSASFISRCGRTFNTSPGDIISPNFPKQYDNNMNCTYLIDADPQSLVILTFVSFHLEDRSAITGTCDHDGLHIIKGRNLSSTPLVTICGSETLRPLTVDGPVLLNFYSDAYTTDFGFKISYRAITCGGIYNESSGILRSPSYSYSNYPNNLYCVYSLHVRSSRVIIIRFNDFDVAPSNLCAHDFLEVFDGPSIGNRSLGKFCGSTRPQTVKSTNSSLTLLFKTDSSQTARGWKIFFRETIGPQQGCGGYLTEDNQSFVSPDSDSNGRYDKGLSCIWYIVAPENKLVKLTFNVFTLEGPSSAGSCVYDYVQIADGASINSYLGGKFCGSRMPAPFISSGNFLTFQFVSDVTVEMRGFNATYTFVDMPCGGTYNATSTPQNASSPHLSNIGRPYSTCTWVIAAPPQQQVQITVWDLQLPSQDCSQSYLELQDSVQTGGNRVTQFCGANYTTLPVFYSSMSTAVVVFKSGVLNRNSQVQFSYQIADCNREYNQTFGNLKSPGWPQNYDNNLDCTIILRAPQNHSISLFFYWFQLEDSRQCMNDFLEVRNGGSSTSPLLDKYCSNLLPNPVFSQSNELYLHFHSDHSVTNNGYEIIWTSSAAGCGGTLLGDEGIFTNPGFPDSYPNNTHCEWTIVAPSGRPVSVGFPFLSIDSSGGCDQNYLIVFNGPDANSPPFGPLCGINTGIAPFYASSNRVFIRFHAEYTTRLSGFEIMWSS

B1: human cystatin C (natural protein, UniProt P01034 27-146, looked up)
chain: SSPGKPPRLVGGPMDASVEEEGVRRALDFAVGEYNKASNDMYHSRALQVVRARKQIVAGVNYFLDVELGRTTCTKTQPNLDNCPFHDQPHLKRKAFCSFQIYAVPWQGTMTLSKSTCQDA
notes: also called cysC
On to B1, for which the dissociation constant Kd was ~0.032 µM in the assay with rat megalin and ~0.024 µM in the assay with rat cubilin.

One may read the Kd as a measure of binding affinity in units of concentration. A high value points to lower affinity.

The record behind these values is PMC5456377, “Megalin dependent urinary cystatin C excretion in ischemic kidney injury in rats” (PLoS ONE, 2017).
